B1: ETS1 (parent)
chain: YVRDRADLNKDKPVIPAAALAGYT

Variants of: B1
Test: protein stability index of a GFP-peptide fusion (GPS, HEK-293T) (PSI 1-6); higher = more stable
Settings: c terminus: a fixed tail appended
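Further: lentivirally expressed fusions sorted by FACS into six bins by GFP to DsRed ratio, PSI derived from sequencing read proportions per bin multiplied by bin number.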

| Variant | protein stability index |
| --- | --- |
| YVRDRVDLNKDKPVIPAAALAGYT | 2.29 |
| YVRDRRDLNKDKPVIPAAALAGYT | 1.72 |
| YVRDRCDLNKDKPVIPAAALAGYT | 2 |
| YVRDRPDLNKDKPVIPAAALAGYT | 1.61 |
| YVRDRQDLNKDKPVIPAAALAGYT | 2.35 |
| YVRDRHDLNKDKPVIPAAALAGYT | 1.87 |
| YVRDRKDLNKDKPVIPAAALAGYT | 1.2 |
| YVRDRIDLNKDKPVIPAAALAGYT | 2.76 |
| YVRDRWDLNKDKPVIPAAALAGYT | 2.71 |
| YVRDRTDLNKDKPVIPAAALAGYT | 1.88 |
| YVRDRSDLNKDKPVIPAAALAGYT | 2.05 |
| YVRDRLDLNKDKPVIPAAALAGYT | 1.55 |
| YVRDRNDLNKDKPVIPAAALAGYT | 2.08 |
| YVRDREDLNKDKPVIPAAALAGYT | 2.27 |
| YVRDRYDLNKDKPVIPAAALAGYT | 2.28 |
| YVRDRGDLNKDKPVIPAAALAGYT | 2.49 |
| YVRDRFDLNKDKPVIPAAALAGYT | 2.46 |
| YVRDRMDLNKDKPVIPAAALAGYT | 3.35 |
| YVRDRDDLNKDKPVIPAAALAGYT | 1.8 |
| YVRDRADMNKDKPVIPAAALAGYT | 2.9 |
| YVRDRADWNKDKPVIPAAALAGYT | 2.23 |
| YVRDRADKNKDKPVIPAAALAGYT | 2.19 |
| YVRDRADENKDKPVIPAAALAGYT | 2.11 |
| YVRDRADTNKDKPVIPAAALAGYT | 2.44 |

| Variant | protein stability index |
| --- | --- |
| YVRDRADINKDKPVIPAAALAGYT | 2.64 |
| YVRDRADSNKDKPVIPAAALAGYT | 1.72 |
| YVRDRADFNKDKPVIPAAALAGYT | 2.72 |
| YVRDRADQNKDKPVIPAAALAGYT | 1.77 |
| YVRDRADHNKDKPVIPAAALAGYT | 2.29 |
| YVRDRADVNKDKPVIPAAALAGYT | 2.31 |
| YVRDRADDNKDKPVIPAAALAGYT | 1.67 |
| YVRDRADRNKDKPVIPAAALAGYT | 1.88 |
| YVRDRADPNKDKPVIPAAALAGYT | 1.87 |
| YVRDRADNNKDKPVIPAAALAGYT | 2.53 |
| YVRDRADGNKDKPVIPAAALAGYT | 2.12 |
| YVRDRADCNKDKPVIPAAALAGYT | 1.96 |
| YVRDRADANKDKPVIPAAALAGYT | 2.17 |
| YVRDRADYNKDKPVIPAAALAGYT | 2.9 |
| YVRDRAPLNKDKPVIPAAALAGYT | 3.16 |
| YVRDRANLNKDKPVIPAAALAGYT | 2.98 |
| YVRDRAVLNKDKPVIPAAALAGYT | 3.53 |
| YVRDRAWLNKDKPVIPAAALAGYT | 2.52 |
| YVRDRAHLNKDKPVIPAAALAGYT | 2.91 |
| YVRDRATLNKDKPVIPAAALAGYT | 3.92 |
| YVRDRAALNKDKPVIPAAALAGYT | 2.05 |
| YVRDRAILNKDKPVIPAAALAGYT | 3.04 |
| YVRDRAFLNKDKPVIPAAALAGYT | 2.17 |
| YVRDRACLNKDKPVIPAAALAGYT | 2.17 |

| Variant | protein stability index |
| --- | --- |
| YVRDRAELNKDKPVIPAAALAGYT | 2.37 |
| YVRDRAGLNKDKPVIPAAALAGYT | 2.56 |
| YVRDRASLNKDKPVIPAAALAGYT | 1.72 |
| YVRDRARLNKDKPVIPAAALAGYT | 3.02 |
| YVRDRAYLNKDKPVIPAAALAGYT | 2.37 |
| YVRDRAKLNKDKPVIPAAALAGYT | 2.99 |
| YVRDRALLNKDKPVIPAAALAGYT | 2.51 |
| YVRDRAMLNKDKPVIPAAALAGYT | 2.6 |
| YVRDRAQLNKDKPVIPAAALAGYT | 2.77 |
| YVRDRADLNQDKPVIPAAALAGYT | 2.55 |
| YVRDRADLNDDKPVIPAAALAGYT | 2.58 |
| YVRDRADLNEDKPVIPAAALAGYT | 1.88 |
| YVRDRADLNLDKPVIPAAALAGYT | 2.62 |
| YVRDRADLNSDKPVIPAAALAGYT | 1.59 |
| YVRDRADLNWDKPVIPAAALAGYT | 2.19 |
| YVRDRADLNFDKPVIPAAALAGYT | 3.25 |
| YVRDRADLNGDKPVIPAAALAGYT | 2.97 |
| YVRDRADLNIDKPVIPAAALAGYT | 2.23 |
| YVRDRADLNVDKPVIPAAALAGYT | 1.55 |
| YVRDRADLNPDKPVIPAAALAGYT | 2.6 |
| YVRDRADLNHDKPVIPAAALAGYT | 2.18 |
| YVRDRADLNADKPVIPAAALAGYT | 2.58 |
| YVRDRADLNYDKPVIPAAALAGYT | 1.97 |
| YVRDRADLNTDKPVIPAAALAGYT | 2.67 |

| Variant | protein stability index |
| --- | --- |
| YVRDRADLNCDKPVIPAAALAGYT | 2.75 |
| YVRDRADLNRDKPVIPAAALAGYT | 2.24 |
| YVRDRADLNMDKPVIPAAALAGYT | 2.32 |
| YVRDRADLNNDKPVIPAAALAGYT | 2.08 |
| YVRDRADLNKHKPVIPAAALAGYT | 3.35 |
| YVRDRADLNKCKPVIPAAALAGYT | 2.46 |
| YVRDRADLNKTKPVIPAAALAGYT | 2.16 |
| YVRDRADLNKPKPVIPAAALAGYT | 3.65 |
| YVRDRADLNKWKPVIPAAALAGYT | 2.56 |
| YVRDRADLNKNKPVIPAAALAGYT | 2.91 |
| YVRDRADLNKEKPVIPAAALAGYT | 2.5 |
| YVRDRADLNKYKPVIPAAALAGYT | 2.59 |
| YVRDRADLNKAKPVIPAAALAGYT | 2.28 |
| YVRDRADLNKKKPVIPAAALAGYT | 1.77 |
| YVRDRADLNKQKPVIPAAALAGYT | 2.78 |
| YVRDRADLNKRKPVIPAAALAGYT | 2.17 |
| YVRDRADLNKGKPVIPAAALAGYT | 3.03 |
| YVRDRADLNKVKPVIPAAALAGYT | 3.03 |
| YVRDRADLNKFKPVIPAAALAGYT | 2.42 |
| YVRDRADLNKIKPVIPAAALAGYT | 2.08 |
| YVRDRADLNKMKPVIPAAALAGYT | 2.31 |
| YVRDRADLNKSKPVIPAAALAGYT | 2.9 |
| YVRDRADLNKLKPVIPAAALAGYT | 4.14 |
| YNRDRADLNKDKPVIPAAALAGYT | 3.77 |

| Variant | protein stability index |
| --- | --- |
| YHRDRADLNKDKPVIPAAALAGYT | 2.46 |
| YPRDRADLNKDKPVIPAAALAGYT | 3 |
| YYRDRADLNKDKPVIPAAALAGYT | 3.5 |
| YRRDRADLNKDKPVIPAAALAGYT | 3.79 |
| YSRDRADLNKDKPVIPAAALAGYT | 3.76 |
| YMRDRADLNKDKPVIPAAALAGYT | 3.81 |
| YGRDRADLNKDKPVIPAAALAGYT | 3.53 |
| YTRDRADLNKDKPVIPAAALAGYT | 3.5 |
| YIRDRADLNKDKPVIPAAALAGYT | 2.17 |
| YWRDRADLNKDKPVIPAAALAGYT | 3.19 |
| YKRDRADLNKDKPVIPAAALAGYT | 3.61 |
| YQRDRADLNKDKPVIPAAALAGYT | 2.93 |
| YLRDRADLNKDKPVIPAAALAGYT | 3.69 |
| YVRDRADLNKDAPVIPAAALAGYT | 2.39 |
| YVRDRADLNKDEPVIPAAALAGYT | 1.79 |
| YVRDRADLNKDCPVIPAAALAGYT | 2.13 |
| YVRDRADLNKDDPVIPAAALAGYT | 2.04 |
| YVRDRADLKKDKPVIPAAALAGYT | 2.31 |
| YVRDRADLHKDKPVIPAAALAGYT | 3.44 |
| YVRDRADLYKDKPVIPAAALAGYT | 2.84 |
| YVRDRADLGKDKPVIPAAALAGYT | 2.29 |
| YVRDRADLIKDKPVIPAAALAGYT | 2.58 |
| YVRDRADLFKDKPVIPAAALAGYT | 2.21 |
| YVRDRADLPKDKPVIPAAALAGYT | 2.29 |

| Variant | protein stability index |
| --- | --- |
| YVRDRADLTKDKPVIPAAALAGYT | 2.75 |
| YVRDRADLVKDKPVIPAAALAGYT | 2.57 |
| YVRDRADLAKDKPVIPAAALAGYT | 2.17 |
| YVRDRADLRKDKPVIPAAALAGYT | 3.34 |
| YVRDRADLMKDKPVIPAAALAGYT | 1.96 |
| YVRDRADLQKDKPVIPAAALAGYT | 1.66 |
| YVRDRADLEKDKPVIPAAALAGYT | 1.98 |
| YVRDRADLSKDKPVIPAAALAGYT | 1.77 |
| YVRDRADLWKDKPVIPAAALAGYT | 3.77 |
| YVRDRADLLKDKPVIPAAALAGYT | 2.81 |
| YVRDRADLCKDKPVIPAAALAGYT | 2.48 |
| YVRDRADLDKDKPVIPAAALAGYT | 1.59 |
| YVRDHADLNKDKPVIPAAALAGYT | 1.95 |
| YVRDVADLNKDKPVIPAAALAGYT | 1.44 |
| YVRDCADLNKDKPVIPAAALAGYT | 2.36 |
| YVRDEADLNKDKPVIPAAALAGYT | 2.36 |
| YVRDNADLNKDKPVIPAAALAGYT | 1.94 |
| YVRDLADLNKDKPVIPAAALAGYT | 1.82 |
| YVRDGADLNKDKPVIPAAALAGYT | 2.24 |
| YVRDPADLNKDKPVIPAAALAGYT | 1.72 |
| YVRDQADLNKDKPVIPAAALAGYT | 1.57 |
| YVRDFADLNKDKPVIPAAALAGYT | 3.08 |
| YVRDIADLNKDKPVIPAAALAGYT | 3.08 |
| YVRDYADLNKDKPVIPAAALAGYT | 2.7 |

| Variant | protein stability index |
| --- | --- |
| YVRDKADLNKDKPVIPAAALAGYT | 2.11 |
| YVRDTADLNKDKPVIPAAALAGYT | 2.02 |
| YVRDSADLNKDKPVIPAAALAGYT | 2.23 |
| YVRDMADLNKDKPVIPAAALAGYT | 1.56 |
| YVRDAADLNKDKPVIPAAALAGYT | 2.12 |
| YVRDDADLNKDKPVIPAAALAGYT | 2.14 |
| YVRDWADLNKDKPVIPAAALAGYT | 2.48 |
| YVRSRADLNKDKPVIPAAALAGYT | 1.77 |
| YVRARADLNKDKPVIPAAALAGYT | 2.68 |
| YVRIRADLNKDKPVIPAAALAGYT | 2.05 |
| YVRPRADLNKDKPVIPAAALAGYT | 2.24 |
| YVRCRADLNKDKPVIPAAALAGYT | 3.5 |
| YVRHRADLNKDKPVIPAAALAGYT | 1.94 |
| YVRWRADLNKDKPVIPAAALAGYT | 1.83 |
| YVRRRADLNKDKPVIPAAALAGYT | 2.1 |
| YVRFRADLNKDKPVIPAAALAGYT | 2.32 |
| YVRGRADLNKDKPVIPAAALAGYT | 2.47 |
| YVRMRADLNKDKPVIPAAALAGYT | 3.45 |
| YVRQRADLNKDKPVIPAAALAGYT | 1.57 |
| YVRNRADLNKDKPVIPAAALAGYT | 3.01 |
| YVRLRADLNKDKPVIPAAALAGYT | 2.03 |
| YVRKRADLNKDKPVIPAAALAGYT | 2.07 |
| YVRERADLNKDKPVIPAAALAGYT | 1.79 |
| YVRTRADLNKDKPVIPAAALAGYT | 3.02 |

| Variant | protein stability index |
| --- | --- |
| YVRYRADLNKDKPVIPAAALAGYT | 3.23 |
| YVNDRADLNKDKPVIPAAALAGYT | 2.43 |
| YVLDRADLNKDKPVIPAAALAGYT | 1.55 |
| YVQDRADLNKDKPVIPAAALAGYT | 2.08 |
| YVFDRADLNKDKPVIPAAALAGYT | 2.33 |
| YVIDRADLNKDKPVIPAAALAGYT | 1.66 |
| YVPDRADLNKDKPVIPAAALAGYT | 2.43 |
| YVTDRADLNKDKPVIPAAALAGYT | 2.3 |
| YVADRADLNKDKPVIPAAALAGYT | 2.24 |
| YVKDRADLNKDKPVIPAAALAGYT | 2.56 |
| YVDDRADLNKDKPVIPAAALAGYT | 2.88 |
| YVHDRADLNKDKPVIPAAALAGYT | 1.77 |
| YVCDRADLNKDKPVIPAAALAGYT | 1.75 |
| YVMDRADLNKDKPVIPAAALAGYT | 1.52 |
| YVYDRADLNKDKPVIPAAALAGYT | 2.54 |
| YVWDRADLNKDKPVIPAAALAGYT | 1.68 |
| YVGDRADLNKDKPVIPAAALAGYT | 2.08 |
| YVVDRADLNKDKPVIPAAALAGYT | 1.55 |
| YVEDRADLNKDKPVIPAAALAGYT | 2.76 |
| YVSDRADLNKDKPVIPAAALAGYT | 2.12 |
